{"source": "patent US20100136007A1", "about": "(Five Prime, published 2010)", "molecular_target": "T1, hCSF1R-ECD.506 (human, UniProt P07333 20-506)", "T1 construct": "also called hCSF1R.506; human CSF1R.506", "T1 sequence (P07333 20-506 limits assumed)": "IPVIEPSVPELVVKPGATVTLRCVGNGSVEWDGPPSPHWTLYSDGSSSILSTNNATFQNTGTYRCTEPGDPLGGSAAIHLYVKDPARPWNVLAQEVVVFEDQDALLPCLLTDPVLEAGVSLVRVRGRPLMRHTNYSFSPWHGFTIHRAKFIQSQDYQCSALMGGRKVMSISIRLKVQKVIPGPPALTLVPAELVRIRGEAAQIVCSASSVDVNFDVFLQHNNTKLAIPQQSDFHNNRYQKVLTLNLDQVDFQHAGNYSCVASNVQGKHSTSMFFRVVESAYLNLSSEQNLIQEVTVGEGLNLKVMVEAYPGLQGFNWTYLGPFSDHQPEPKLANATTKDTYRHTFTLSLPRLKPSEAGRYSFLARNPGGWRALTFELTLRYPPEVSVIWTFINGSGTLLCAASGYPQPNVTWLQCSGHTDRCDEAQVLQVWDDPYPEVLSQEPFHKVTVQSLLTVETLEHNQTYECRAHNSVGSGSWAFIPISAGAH", "assay": "SPR, Biacore", "protocol": "The CSF1 and IL34 ligand binding affinity and kinetics of the hCSF1R.506-GS-Fc and hCSF1R.512-GS-Fc fusion proteins were determined using Biacore® X surface plasmon resonance (SPR) technology (Uppsala, Sweden). CSF1 and IL34 are the only two ligands known to interact with the CSF1R ECD. The CSF1 and IL34 binding experiments were carried out using methodology similar to that described in Lin et al., Science 320:807-811, (2008).\nIn order to compare the relative ligand binding affinity of hCSF1R.506 (SEQ ID NO:2) and hCSF1R.506-Fc (SEQ ID NO:6) proteins expressed in CHO cells to CSF1, a Biacore® assay was used.", "data": [{"binder": "colony stimulating factor 1 ligand (CSF1) (ligand, UniProt P09603 33-190, looked up, also called MCSF; MGC31930) EEVSEYCSHMIGSGHLQSLQRLIDSQMETSCQITFEFVDQEQLKDPVCYLKKAFLLVQDIMEDTMRFRDNTPNAIAIVQLQELSLRLKSCFTKDYEEHDKACVRTFYETPLQLLEKVKNVFNETKNLLDKDWNIFSKNCNNSFAECSSQDVVTKPDCN", "values": [{"measurement": "Kd", "result": 28.9, "unit": "nM"}, {"measurement": "koff", "result": 0.000809, "unit": "s⁻¹"}, {"measurement": "kon", "result": 28000, "unit": "M⁻¹ s⁻¹"}]}]}
